Measured values: paper PMC6017737, “Functional Impact of the N-terminal Arm of Proline Dehydrogenase from Thermus thermophilus” (Molecules : A Journal of Synthetic Chemistry and Natural …, 2018)

Tests used:
[1] = target: T1, MBP-TtProDH EE (Thermus thermophilus, UniProt Q72IB8, F10E/L12E, form not given); experiment: residual proline:DCPIP activity after incubation; flavin absorption spectra; assay type: biochemical; details: covalent; suicide inhibitor, flavin N(5)-Lys99 adduct; 40 µM enzyme, pH 7.4, 25 °C
T1 construct: gene TT_C1214; full-length, Phe10 and Leu12 replaced by Glu; N-terminal MBP tag kept; E. coli TOP10; tetramer; FAD

[2] = target: T2, MBP-TtProDH ΔAB (Thermus thermophilus, UniProt Q72IB8); experiment: as above; assay type: biochemical; details: covalent; suicide inhibitor, flavin N(5)-Lys99 adduct; 40 µM enzyme, pH 7.4, 25 °C
T2 construct: gene TT_C1214; lacks N-terminal helices αA and αB; start 29 (KGLVRRYVAG...) derived from printed primer and V32/Y35/V36 numbering; N-terminal MBP tag kept; E. coli TOP10; tetramer; FAD

[3] = target: T3, MBP-TtProDH ΔA (Thermus thermophilus, UniProt Q72IB8); experiment: as above; assay type: biochemical; details: covalent; suicide inhibitor, flavin N(5)-Lys99 adduct; 40 µM enzyme, pH 7.4, 25 °C
T3 construct: gene TT_C1214; lacks N-terminal helix αA; start 19 (QVERLIKHRAKG...) derived from printed primer; N-terminal MBP tag kept; E. coli TOP10; tetramer; FAD

[4] = target: T4, MBP-TtProDH ΔAB (Thermus thermophilus, UniProt Q72IB8, V36D, form not given)
T4 construct: gene TT_C1214

[5] = target: T5, MBP-TtProDH ΔAB (Thermus thermophilus, UniProt Q72IB8, V32D, form not given)
T5 construct: gene TT_C1214

[6] = target: the molecule itself; experiment: SEC; analytical gel filtration on Superdex 200 of each MBP-fused variant alone, as described in ref. 19
[7] = target: the molecule itself; experiment: native MS; nanoflow ESI-MS of the native MBP-fused variants; source backing pressure 7.8 mbar, cone voltage 100-150 V
[8] = target: the molecule itself; experiment: SEC; 20 µM EE and 20 µM ΔABC mixed in 50 mM sodium phosphate pH 7.4, incubated at room temperature overnight, then Superdex 200 gel filtration; SDS-PAGE of the fractions

Molecule | stoichiometry N [6] | stoichiometry N [7] | other results
C#CCNCC(=O)O [N-propargylglycine] | – | – | % residual activity after 90 min at 2.5 mM [1]: ~ 13%; % residual activity after 90 min at 2.5 mM [2]: For ΔA and ΔAB the activity loss is even more pronounced; % residual activity after 90 min at 2.5 mM [3]: For ΔA and ΔAB the activity loss is even more pronounced; % residual activity after 90 min at 2.5 mM [4]: 63%; % residual activity after 90 min at 2.5 mM [5]: 30%
MBP-TtProDH ΔAB (MBP-TtProDH lacking helices αA and αB) (domain or fragment, Thermus thermophilus, Proline dehydrogenase (TtProDH), Thermus thermophilus, lacking helices αA and αB; C-terminal tail of TtProDH (part of helix α8), residues 288-309 as printed; not shown: MBP, N-terminal, kept) KGLVRRYVAGETLEEALKAAEALEREGVHAILDLLGEMVRTEEEARAFQRGLLELVWALAGKPWPKYISLKLTQLGLDLSEDLALALLREVLREAEPRGVFVRLDMEDSPRVEATLRLYRALREEGFSQVGIVLQSYLYRTEKDLLDLLPYRPNLRLVKGAYREPKEVAFPDKRLIDAEYLHLGKLALKEGLYVAFATHDPRIIAELKRYTEAMGIPRSRFEFQFLYGVRPEEQRRLAREGYTVRAYVPYGRDWYPYLTRRIAERPENLLLVLRSLVSGLE | 4 | 2 | –
MBP-TtProDH ΔAB V32D (domain or fragment, Thermus thermophilus, Proline dehydrogenase (TtProDH), Thermus thermophilus, lacking helices αA and αB, with V32D in helix αC; C-terminal tail of TtProDH (part of helix α8), residues 288-309 as printed; lacking in a part of the preparation; The preparation is a mixture: partially intact and partially cleaved before R288 (two subunit masses, 73.0 and 75.5 kDa); Mainly dimers by SEC, tetramers and dimers by …) KGLDRRYVAGETLEEALKAAEALEREGVHAILDLLGEMVRTEEEARAFQRGLLELVWALAGKPWPKYISLKLTQLGLDLSEDLALALLREVLREAEPRGVFVRLDMEDSPRVEATLRLYRALREEGFSQVGIVLQSYLYRTEKDLLDLLPYRPNLRLVKGAYREPKEVAFPDKRLIDAEYLHLGKLALKEGLYVAFATHDPRIIAELKRYTEAMGIPRSRFEFQFLYGVRPEEQRRLAREGYTVRAYVPYGRDWYPYLTRRIAERPENLLLVLRSLVSGLE | 2 | 4 | –
MBP-TtProDH ΔAB Y35F (domain or fragment, Thermus thermophilus, Proline dehydrogenase (TtProDH), Thermus thermophilus, lacking helices αA and αB, with Y35F in helix αC; C-terminal tail of TtProDH (part of helix α8), residues 288-309 as printed; Identical subunits by denaturing MS; not shown: MBP, N-terminal, kept) KGLVRRFVAGETLEEALKAAEALEREGVHAILDLLGEMVRTEEEARAFQRGLLELVWALAGKPWPKYISLKLTQLGLDLSEDLALALLREVLREAEPRGVFVRLDMEDSPRVEATLRLYRALREEGFSQVGIVLQSYLYRTEKDLLDLLPYRPNLRLVKGAYREPKEVAFPDKRLIDAEYLHLGKLALKEGLYVAFATHDPRIIAELKRYTEAMGIPRSRFEFQFLYGVRPEEQRRLAREGYTVRAYVPYGRDWYPYLTRRIAERPENLLLVLRSLVSGLE | 4 | – | –
MBP-TtProDH ΔAB V36D (domain or fragment, Thermus thermophilus, Proline dehydrogenase (TtProDH), Thermus thermophilus, lacking helices αA and αB, with V36D in helix αC; C-terminal tail of TtProDH (part of helix α8), residues 288-309 as printed; lacking in a part of the preparation; The preparation is a mixture: partially intact and partially cleaved before R288 (two subunit masses, 73.0 and 75.5 kDa); Mainly dimers by SEC, tetramers and dimers by …) KGLVRRYDAGETLEEALKAAEALEREGVHAILDLLGEMVRTEEEARAFQRGLLELVWALAGKPWPKYISLKLTQLGLDLSEDLALALLREVLREAEPRGVFVRLDMEDSPRVEATLRLYRALREEGFSQVGIVLQSYLYRTEKDLLDLLPYRPNLRLVKGAYREPKEVAFPDKRLIDAEYLHLGKLALKEGLYVAFATHDPRIIAELKRYTEAMGIPRSRFEFQFLYGVRPEEQRRLAREGYTVRAYVPYGRDWYPYLTRRIAERPENLLLVLRSLVSGLE | 2 | 4 | –
MBP-TtProDH ΔABC (MBP-TtProDH lacking helices αA, αB and αC) (domain or fragment, Thermus thermophilus, UniProt Q72IB8 38-287, looked up, Proline dehydrogenase (TtProDH), Thermus thermophilus, lacking the whole N-terminal arm; PDB 5M42)'; the construct encodes up to residue 309, but the observed species is C-terminally truncated, cleaved before Arg288 (residues 288-309 removed); The difference of the predicted masses of ΔAB and ΔABC (75.5 against 74.4 kDa) fits a start at G38; not shown: MBP, N-terminal, kept) GETLEEALKAAEALEREGVHAILDLLGEMVRTEEEARAFQRGLLELVWALAGKPWPKYISLKLTQLGLDLSEDLALALLREVLREAEPRGVFVRLDMEDSPRVEATLRLYRALREEGFSQVGIVLQSYLYRTEKDLLDLLPYRPNLRLVKGAYREPKEVAFPDKRLIDAEYLHLGKLALKEGLYVAFATHDPRIIAELKRYTEAMGIPRSRFEFQFLYGVRPEEQRRLAREGYTVRAYVPYGRDWYPYLT | 2 | 4 | –
MBP-TtProDH ΔA (MBP-TtProDH lacking helix αA) (domain or fragment, Thermus thermophilus, Proline dehydrogenase (TtProDH), Thermus thermophilus, lacking helix αA; C-terminal tail of TtProDH (part of helix α8), residues 288-309 as printed; Cloned with EcoRI and HindIII into pBAD-MBP; not shown: MBP, N-terminal, kept) QVERLIKHRAKGLVRRYVAGETLEEALKAAEALEREGVHAILDLLGEMVRTEEEARAFQRGLLELVWALAGKPWPKYISLKLTQLGLDLSEDLALALLREVLREAEPRGVFVRLDMEDSPRVEATLRLYRALREEGFSQVGIVLQSYLYRTEKDLLDLLPYRPNLRLVKGAYREPKEVAFPDKRLIDAEYLHLGKLALKEGLYVAFATHDPRIIAELKRYTEAMGIPRSRFEFQFLYGVRPEEQRRLAREGYTVRAYVPYGRDWYPYLTRRIAERPENLLLVLRSLVSGLE | 4 | 2 | –
MBP-TtProDH variant EE (MBP-TtProDH with Phe10 and Leu12 replaced by Glu) (enzyme, Thermus thermophilus, Proline dehydrogenase (TtProDH), Thermus thermophilus, from its start to residue 287; C-terminal tail of TtProDH (part of helix α8), residues 288-309 as printed; The last residues of the printed tail (LE) may stem from the construct and not from the natural protein (my surmise); also called MBP-TtProDH EE; not shown: MBP, N-terminal, kept) MNLDLAYRSEVEGVAGHPQVERLIKHRAKGLVRRYVAGETLEEALKAAEALEREGVHAILDLLGEMVRTEEEARAFQRGLLELVWALAGKPWPKYISLKLTQLGLDLSEDLALALLREVLREAEPRGVFVRLDMEDSPRVEATLRLYRALREEGFSQVGIVLQSYLYRTEKDLLDLLPYRPNLRLVKGAYREPKEVAFPDKRLIDAEYLHLGKLALKEGLYVAFATHDPRIIAELKRYTEAMGIPRSRFEFQFLYGVRPEEQRRLAREGYTVRAYVPYGRDWYPYLTRRIAERPENLLLVLRSLVSGLE | – | – | stoichiometry N [8]: 4
